{"source": "patent EP4803139A2", "about": "(Amgen Inc., dated 2026)", "binders": {"B1": {"name": "11F1, anti-PCSK9 antibody (antibody, V domains shown)", "VH": "EVQLVESGGGLVQPGGSLRLSCAASGFTFSNYWMSWVRQAPGKGLEWVASIKQDGSEKYYVDSVKGRFAISRDNAKNSLFLQMNSLRAEDTAVYYCARDLVLMVYDIDYYYYGMDVWGQGTTVTVSS", "VL": "not shown"}}, "biological_target": "T1, PCSK2 (R&D Systems) (UniProt P16519 26-638, limits assumed)", "T1 sequence (looked up)": "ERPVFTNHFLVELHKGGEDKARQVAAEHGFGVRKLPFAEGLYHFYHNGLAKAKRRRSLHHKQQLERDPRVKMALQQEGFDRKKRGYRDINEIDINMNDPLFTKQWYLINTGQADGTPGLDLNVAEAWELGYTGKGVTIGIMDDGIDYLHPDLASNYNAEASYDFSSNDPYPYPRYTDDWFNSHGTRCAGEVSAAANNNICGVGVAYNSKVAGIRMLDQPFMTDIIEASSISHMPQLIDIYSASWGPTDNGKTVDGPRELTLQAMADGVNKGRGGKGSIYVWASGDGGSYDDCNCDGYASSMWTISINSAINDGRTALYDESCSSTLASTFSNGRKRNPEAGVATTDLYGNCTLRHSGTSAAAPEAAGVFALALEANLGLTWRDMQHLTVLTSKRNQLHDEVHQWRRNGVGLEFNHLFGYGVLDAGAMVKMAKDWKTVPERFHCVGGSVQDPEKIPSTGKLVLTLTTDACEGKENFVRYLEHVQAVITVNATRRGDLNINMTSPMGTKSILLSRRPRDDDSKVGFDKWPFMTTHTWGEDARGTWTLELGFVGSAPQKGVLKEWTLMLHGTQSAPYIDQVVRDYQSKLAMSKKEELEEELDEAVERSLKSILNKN", "experiment": "competition ELISA: 0.4 µg/mL 11F1 pre-incubated with the convertase in solution, then binding to plate-captured biotinylated PCSK9", "data": [{"binder": "B1", "values": [{"measurement": "binding result", "value": "no binding (tested: 0 to 20 µg/mL)"}]}]}
